Target: T1, recombinant filaggrin-2 (FLG2), positions 2 to 213 of Q5D862, fused to a Thioredoxin-His-S.Tag affinity label, Q5D862
T1 chain: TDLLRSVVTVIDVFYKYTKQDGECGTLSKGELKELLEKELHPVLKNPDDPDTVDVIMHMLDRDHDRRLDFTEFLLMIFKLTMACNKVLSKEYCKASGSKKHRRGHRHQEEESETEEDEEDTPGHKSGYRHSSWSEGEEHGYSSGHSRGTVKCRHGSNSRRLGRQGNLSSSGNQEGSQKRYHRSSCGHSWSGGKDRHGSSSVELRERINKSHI

B1: recombinant 28 kDa SASPase (SASPase-28), positions 85 to 343 of Q53RT3 (protein)
chain: MAGSGARSEEGRRQHAFVPEPFDGANVVPNLWLHSFEVINDLNHWDHITKLRFLKESLRGEALGVYNRLSPQDQGDYGTVKEALLKAFGVPGAAPSHLPKEIVFANSMGKGYYLKGKIGKVPVRFLVDSGAQVSVVHPNLWEEVTDGDLDTLQPFENVVKVANGAEMKILGVWDTAVSLGKLKLKAQFLVANASAEEAIIGTDVLQDHNAILDFEHRTCTLKGKKFRLLPVGGSLEDEFDLELIEEDPSSEEGRQELSH
For B1, the “enzymatic activity of SASPase (hydrolysis of Dabcyl-QIDRIMEK-Edans, EDANS fluorescence at 340/490 nm)” value was “the enzymatic activity of SASPase is significantly increased in the presence of an increasing concentration of FLG2-Hs”.
